These results are taken from article PMC6437178.

For this experiment, the target named is engineered Salmo salar Ctr1 crystallization construct sCtr1_(cryst) (Salmo salar | not stated). Briefly: crystal structure; hanging-drop vapor diffusion at 20 °C; 26-28% PEG 400, 50 mM zinc acetate, 50 mM sodium cacodylate pH 5.9; protein in CYMAL-5; Cu^+-free (3.0 Å) and Cu^+-bound (3.2 Å) states; trimer on the crystallographic three-fold axis.

In turn, “engineered Salmo salar Ctr1 crystallization construct sCtr1_(cryst) (from UniProt A0A1S3KYH5 41-93; A0A1S3KYH5 121-184)” returned a stoichiometry N of 3.

By stoichiometry N is commonly meant a count of units in the complex or per binding partner.
